Results on three molecules are retold here after PMC5897774, “Mitotic spindle association of TACC3 requires Aurora‐A‐dependent stabilization of a cryptic α‐helix” (The EMBO Journal, 2018).

The target of test [1] is T1, Aurora‐A R151A (Homo sapiens, UniProt O14965, C290A/C393A/R151A).
T1 construct: pET30TEV Aurora‐A 122–403 C290A, C393A were produced in a similar manner; made in house
T1 sequence (O14965 122-403 R151A/C290A/C393A): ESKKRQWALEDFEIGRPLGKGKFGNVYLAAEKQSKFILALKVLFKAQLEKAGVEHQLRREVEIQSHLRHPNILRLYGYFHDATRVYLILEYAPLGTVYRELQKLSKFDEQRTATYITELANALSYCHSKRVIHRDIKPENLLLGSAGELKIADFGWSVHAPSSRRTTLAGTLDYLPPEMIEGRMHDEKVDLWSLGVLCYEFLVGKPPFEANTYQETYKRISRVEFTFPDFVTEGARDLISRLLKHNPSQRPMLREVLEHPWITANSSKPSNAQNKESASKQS
Briefly: Radioactive 32P‐ATP kinase assay, MBP substrate, Aurora‐A R151A. Format: biochemical. To be noted: 0.625 μM Aurora‐A R151A, 5 μM TACC3^N‐ACID, 0.25 mg/ml MBP, 10 min, scintillation counting, duplicate. The method, then: Figure EV2 Biochemical and structural analysis of the Aurora‐A/TACC3 complex • FP assay between FAM‐TACC3 519–570 and Aurora‐A. Reactions were performed in triplicate. Error bars represent standard deviation. […] Error bars represent standard deviation. […] This peptide was based on the location of a sulphate ion, originating from the crystallization solution, at the interface of the Aurora‐A/TACC3 interface in the crystal structure, close to TACC3 T534. […] Myelin basic protein (MBP) was used as a generic kinase substrate. Incorporation of radioisotope was measured by scintillation counting. Reactions were performed in duplicate. Error bars represent standard error. Assays were compared to the WT TACC3^N‐ACIDH6c reaction by one‐way ANOVA with Dunnett's post hoc test. *P < 0.1, **P < 0.01 and ****P < 0.0001. • Multiple sequence alignment of TACC3 (above) and Aurora‐A (below) orthologs spanning the interaction binding interface. Key binding residues are boxed in red. The TACC3 phosphorylation sites, S552 and S558, are boxed in blue. The TACC3 LL motif required for binding to CHC is boxed in green. […]
Radioactive ^32P‐ATP kinase assays were performed as described previously (Burgess et al, 2015). […] Samples were spotted onto P81 Whatman paper, washed extensively with 0.2% (v/v) orthophosphoric acid and incorporation of radioisotope measured by scintillation counting.

The subject of test [2] is unphosphorylated Aurora‐A KD. The experiment in a line: Autophosphorylation assay of unphosphorylated Aurora‐A KD (Western blot αphospho‐T288). The class given is biochemical, human. As to conditions: unphosphorylated Aurora‐A 122–403, 1 h, room temperature. The source says:
(§1) Figure 2 TACC3 523–534 forms a docking interaction on the N‐lobe of Aurora‐A • Magnified view of the site 1 interaction. • Schematic showing the key features of the TACC3/Aurora‐A interface. • FP assays of binding between site 1 of TACC3 and Aurora‐A. The sequence of TACC3 present in the complex crystal structure is shown (top) with the residues of the site 1 FP peptide coloured orange and mutated residues identified by coloured circles corresponding to the curves shown in the FP assay (below). Data represent mean of three experiments ± SD. […] Data represent mean of three experiments ± SD. […] Reactions were analysed by SDS–PAGE (above) and Western blotting with an αphospho‐T288 Aurora‐A antibody (below). […] They are listed as printed.
(§2) Autophosphorylation assays were performed as for radioactive ^32P‐ATP reactions using Aurora‐A 122–403 co‐expressed with lambda phosphatase for 1 h at room temperature with His‐Aurora‐A D274N as a substrate in replace of MBP. Reactions were resolved by SDS–PAGE and subject to Western blotting using an α‐phospho‐T288 Aurora‐A antibody (CST 2914, 1:2,000) as per the manufacturer's recommendation.

In test [3] the target is T2, Aurora‐A (Homo sapiens, UniProt O14965, C290A/C393A).
T2 construct: pET30TEV Aurora‐A 122–403 C290A, C393A; made in house
T2 sequence (O14965 122-403 C290A/C393A): T1 sequence (O14965 122-403 R151A/C290A/C393A) with A30R
The experiment in a line: Radioactive 32P‐ATP kinase assay, MBP substrate. To be noted: 0.625 μM phosphorylated Aurora‐A, 5 μM TACC3^N‐ACID, 0.25 mg/ml MBP, 10 min, scintillation counting, duplicate. The class given is biochemical. As to the method: Figure EV2 Biochemical and structural analysis of the Aurora‐A/TACC3 complex • FP assay between FAM‐TACC3 519–570 and Aurora‐A. Reactions were performed in triplicate. Error bars represent standard deviation. […] Error bars represent standard deviation. […] This peptide was based on the location of a sulphate ion, originating from the crystallization solution, at the interface of the Aurora‐A/TACC3 interface in the crystal structure, close to TACC3 T534. […] Myelin basic protein (MBP) was used as a generic kinase substrate. Incorporation of radioisotope was measured by scintillation counting. Reactions were performed in duplicate. Error bars represent standard error. Assays were compared to the WT TACC3^N‐ACIDH6c reaction by one‐way ANOVA with Dunnett's post hoc test. […], **P < 0.01 and ****P < 0.0001. • Multiple sequence alignment of TACC3 (above) and Aurora‐A (below) orthologs spanning the interaction binding interface. Key binding residues are boxed in red. The TACC3 phosphorylation sites, S552 and S558, are boxed in blue. The TACC3 LL motif required for binding to CHC is boxed in green. The TACC3 α‐helix produced on binding to CHC is identified by a black line. TEXT PRINTED IN THE PICTURE: (A) TACC3 519-570: 3.0 ± 0.2 μM | (B) WT: 20 ± 1 μM | (B) R526A: 49 ± 2 μM | (B) phospho-T534: 14 ± 1 μM
Radioactive ^32P‐ATP kinase assays were performed as described previously (Burgess et al, 2015). In brief, 0.625 μM Aurora‐A^M3KD WT or selected mutant was incubated with 0.25 mg/ml MBP alone and in the presence of 5 μM TACC3^N‐ACID WT or mutant for 10 min. Reactions were terminated by the addition of 2% (v/v) orthophosphoric acid. Samples were spotted onto P81 Whatman paper, washed extensively with 0.2% (v/v) orthophosphoric acid and incorporation of radioisotope measured by scintillation counting.

For test [4], the target named is T2, Aurora‐A. The arrangement: method as in Burgess et al, 2015. As to conditions: ref Burgess et al, 2015, cited from earlier work.
Test [5] has as its system Aurora‐A KD (substrate: Aurora‐A D274N). The experiment in a line: Substrate phosphorylation of kinase‐dead Aurora‐A D274N by Aurora‐A KD (Western blot αphospho‐T288). To be noted: Aurora‐A D274N as substrate, 1 h, room temperature. The class given is biochemical, human.
Source text: as §1, §2

Test [6] addresses T3, CHC 1–574 (Homo sapiens, UniProt Q00610).
T3 construct: GST (cleaved yes); made in house
The experiment in a line: FP binding assay, CHC 1–574. To be noted: 50 nM FAM peptide, pH 7.5, 25°C, mutant vs WT phospho-TACC3^CID. As to the method: For CHC‐TACC3 FP assays, CHC proteins were serially diluted in FP buffer (20 mM HEPES–NaOH pH 7.5, 200 mM NaCl, 5 mM DTT). FAM‐labelled TACC3 peptide was added to a final concentration of 50 nM and incubated for 30 min at room temperature to allow binding to reach equilibrium. Fluorescence polarization measurements were made using a Victor X5 plate reader (Perkin Elmer) at 25°C with excitation at 490 nm and emission at 535 nm. Data analysis was performed as described above.

In test [7] the test system is Aurora‐A. To be noted: whether T288 is phosphorylated or not, ref Bayliss et al, 2003, Eyers et al, Dodson & Bayliss, 2012; cited from earlier work. The source says: The activity of Aurora‐A is controlled through phosphorylation of its activation loop on T288 (Bayliss et al, 2003; Eyers et al, 2003). Like many of its other binding partners, such as TPX2, I‐2, HEF1, and N‐Myc, TACC3 is an Aurora‐A activator (Nikonova et al, 2013; Richards et al, 2016). However, only in the case of TPX2 has the mechanism of activation, and how this synergizes with phosphorylation of T288, been resolved (Bayliss et al, 2003; Eyers et al, 2003; Dodson & Bayliss, 2012).

Substitutions are numbered along the chain they refer to. Where two headings read alike, the source gives them in different places. Residues, ends and D or L forms follow the SMILES beside them. No end group written: not given here.

T3 sequence (Q00610 1-574): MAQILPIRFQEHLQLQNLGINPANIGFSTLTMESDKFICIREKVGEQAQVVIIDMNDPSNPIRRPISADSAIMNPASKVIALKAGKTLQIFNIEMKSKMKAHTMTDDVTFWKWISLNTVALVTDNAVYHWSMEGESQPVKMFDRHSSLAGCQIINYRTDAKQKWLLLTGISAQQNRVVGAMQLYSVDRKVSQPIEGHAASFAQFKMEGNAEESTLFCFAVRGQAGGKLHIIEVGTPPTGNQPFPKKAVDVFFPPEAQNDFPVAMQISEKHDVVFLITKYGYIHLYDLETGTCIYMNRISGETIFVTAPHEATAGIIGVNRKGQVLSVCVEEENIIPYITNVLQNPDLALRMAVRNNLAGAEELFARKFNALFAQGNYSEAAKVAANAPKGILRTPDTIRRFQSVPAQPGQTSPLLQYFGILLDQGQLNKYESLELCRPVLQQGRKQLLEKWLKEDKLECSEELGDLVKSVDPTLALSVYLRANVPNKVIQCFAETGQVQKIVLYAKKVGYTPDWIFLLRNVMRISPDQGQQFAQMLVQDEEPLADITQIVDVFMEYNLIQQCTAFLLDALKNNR

Regarding “TACC3^N‐ACID: N-terminal fragment of the Aurora-A and CHC interaction domain of TACC3, aa519–563 (ELKEESFRDPAEVLGTGAEVDYLEQFGTSSFKESALRKQSLYLKF; not fully specified)”, in test [1], the “stimulation of Aurora‐A R151A activity by TACC3” value was “reduced stimulation”. For the same molecule, in test [2], the “Aurora‐A autophosphorylation on T288” value is “stimulated”. For the same molecule, the “stimulation of Aurora‐A activity” value in test [3] was “eightfold”. Also, the Kd in test [4] (microscale thermophoresis and NMR, read-out: K d measured by MST and NMR) is 6 to 8 µM; in test [4] (previous data, effect of F525A mutation, read-out: K d of the interaction) it was 5.7 µM. Besides, in test [5], the “substrate phosphorylation on T288 (Aurora‐A D274N)” value is recorded as “stimulated”.

Turning to `CC(C)C[C@H](NC(=O)[C@H](C)NC(=O)[C@H](CO)NC(=O)[C@H](CCC(=O)O)NC(=O)[C@H](CCCCN)NC(=O)[C@H](Cc1ccccc1)NC(=O)c1ccc2c(c1)C(=O)OC21c2ccc(O)cc2Oc2cc(O)ccc21)C(=O)N[C@@H](C)C(=O)N[C@@H](C)C(=O)N[C@@H](CCC(N)=O)C(=O)N[C@@H](COP(=O)(O)O)C(=O)N[C@@H](CC(C)C)C(=O)N[C@@H](Cc1ccc(O)cc1)C(=O)N[C@@H](CC(C)C)C(=O)N[C@@H](CCCCN)C(=O)N[C@@H](Cc1ccccc1)C(=O)N[C@@H](CC(=O)O)C(=O)N1CCC[C@H]1C(=O)N[C@@H](CC(C)C)C(=O)N[C@@H](CC(C)C)C(=O)N[C@@H](CCCNC(=N)N)C(=O)N[C@@H](CC(=O)O)C(=O)N[C@@H](CO)C(=O)O` [R555A, K556A] (HELM PEPTIDE1{[O=C1OC2(c3ccc(O)cc3Oc3cc(O)ccc32)c2ccc(C(=O)[*:2])cc21].F.K.E.S.A.L.A.A.Q.[O=C([C@H](COP(=O)(O)O)N[*:1])[*:2]].L.Y.L.K.F.D.P.L.L.R.D.S}$$$$V2.0; N-terminus and C-terminus assumed), the “factor of reduction of affinity for CHC 1–574” value in test [6] is on record as 4–5 factor.

For the molecule “TPX2 1–43: amino acids 1–43 of TPX2 (MSQVKSSYSYDAPSDFINFSSLDDEGDTQNIDSWFEEKANLEN; UniProt Q9ULW0 1-43, looked up, fragment)”, in test [7], the “stimulation of Aurora‐A activity” value is “stimulate Aurora‐A activity”.
